{
  "source": "paper PMC4191985",
  "molecular_target": "BamA^Eco (Escherichia coli) (UniProt P0A940)",
  "experiment": "flow cytometry on cells",
  "conditions": "remark: other sources report otherwise",
  "data": [
    {"substance": "CdiA^EC93, Q3YL96 33-3132", "values": [
      {"measurement": "percent of target cells bound to inhibitor cells", "value": 73, "unit": "%"}
    ]}
  ]
}
